From PMC2935386, “Dissecting the Relation between a Nuclear Receptor and GATA: Binding Affinity Studies of Thyroid Hormone Receptor and GATA2 on TSHβ Promoter” (PLoS ONE, 2010)

Molecular target: T1, human TRβ1ΔAB (TR DBD-LBD), thyroid hormone receptor β1 residues 102-461 (human, UniProt P10828-1 102-461)
T1 construct: Holo form (T3/TR) made by adding T3 in 3 times molar excess; also called TR DL; TRβ1 DL
T1 sequence (looked up): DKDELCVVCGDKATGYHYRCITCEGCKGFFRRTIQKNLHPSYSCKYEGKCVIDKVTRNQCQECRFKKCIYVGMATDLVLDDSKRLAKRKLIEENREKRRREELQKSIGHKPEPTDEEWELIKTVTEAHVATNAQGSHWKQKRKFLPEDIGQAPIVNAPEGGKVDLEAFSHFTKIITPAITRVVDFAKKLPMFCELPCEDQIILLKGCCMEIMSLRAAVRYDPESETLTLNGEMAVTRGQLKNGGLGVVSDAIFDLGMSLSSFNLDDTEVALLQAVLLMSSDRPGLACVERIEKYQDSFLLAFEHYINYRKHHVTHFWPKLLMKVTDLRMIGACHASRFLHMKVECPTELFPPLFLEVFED
Assay: fluorescence polarisation; fluorescence anisotropy; 10nM fluorescein-labeled GATA2-Zf titrated with unlabeled, unliganded TR DBD-LBD or TR DBD, 1nM to 10.000nM; 10°C, 50mM NaCl, 20mM Hepes pH8.0, 3mM dithiothreitol, 5% glycerol
Conditions: both partners purified

B1: fluorescein-labelled zinc finger region of GATA2 (GATA2-Zf), residues 291-412 (domain or fragment)
chain: not shown
modifications: fluorescein (fluorescein-isothiocyanate, three times molar excess; site not stated)
notes: GATA2, zinc finger region, residues 291-412; removal of the His tag is surmised from that; Two vectors are named (pET31a, pET28a(+)); also called fluorophore-labelled GATA2-Zf; fluorescein-labeled GATA2-Zf
Q: How did the Kd turn out when B1 was run?
A: The Kd was 1170 nM.
